Reference: patent US20230203156A1 (WILLIAM ROBERT ARATHOON LIVING TRUST DATED AUGUST 29 2016, published 2023)

B1: B1.178 (antibody, human IgG1, V domains shown)
VH: EAQLVESGGALVKPGGSLKLSCSASGFTFSNYAMSWVRQTPEKRLEWVATISSGGTNTYYPGSVKGRFTIARDNAKNTLYLLMSSLRSEDTALYFCARYSNLAWFASWGQGTLVTVSA
VL: DVVMTQTPLSLPVSLGDQASISCRSSQSIVHSNGNTYLEWYLQKPGQSPKFLISKVSNRFSGVPDRFSGSGSGTDFTLKISRVEAEDLGIYYCFQGSHVPYTFGGGTKLEIK
B2: B1.207 (antibody, human IgG1, V domains shown)
VH: GVQLVESGGALVKPGGSLKLSCAASGFTFSNYAMSWVRQTPEKRLEWVATISSGGSYTYYPDSVKGRFTISRDNAKTTLYLQMSGLRSEDTALYYCAKYSNYGRFASWGQGTLVTVST
VL: DVLMTQTPLSLPVSLGDQASISCRSSQSIVHSSGNTYLEWYLQKPGQSPRLLIYKVSNRFFGVPDRISGSGSGTDFTLRISRVEAEDLGVYYCFQGSHVPYTFGGGTKLEIK
B3: B1.201 (antibody, human IgG1, V domains shown)
VH: EVQLVESGGALMKPGGSLKFSCAASGFTFTNYAMSWVRQTPEKRLEWVATISSGGSNTYYSDSVKGRFTISRDNAKTTLYLQMSGLRSEDTALYYCAKFSNFGRFASWGQGTLVTVSA
VL: DVLMTQTPLSLPVSLGDQASISCRFSQSIVHSSGNTYLEWYLQKPGQSPRLLIYKVSNRFFGVPDRISGSGSGTDFTLRISRVEAEDLGVYYCFQGSHVPYTFGGGTKLEIK
B4: KPA08 (antibody, V domains shown)
VH: EVKVVESGGVLVRPGGSLKLSCAASGFTFSRYTMSWVRQTPEKRLEWVATISSGGGNTYYPDSVKGRFTVSRDNAMSSLYLQMSSLRSEDTALYYCARYGAGDAWFAYWGQGTLVTVSS
VL: DVLMTQTPVSLSVSLGDQASISCRSSQSIVHSTGNTYLEWYLQKPGQSPKLLIYKISNRFSGVPDRFSGSGSGTDFTLKISRVEAEDLGVYYCFQASHFPRTFGGGTKLEIK
B5: B1.198 (antibody, human IgG1, V domains shown)
VH: EVQLVESGGALVKPGGSLKLSCAASGFTFSNYAMSWVRQTPEKRLEWVATISSGGSYTYYPDSVKGRFTISRDNAKNTLYLQMSSLRSEDTALYYCAKYSNYGRFAYWGQGTLVTVSA
VL: DVVMTQTPLSLPVSLGDQASISCRSSQSIVDSNGNTYLEWYLQKPGQSPKLLIYKVSNRFFGVPDRFSGSGSGTDFTLKISRVEAEDLGVYYCFQGSHVPYTFGGGTKLEIK
B6: B1.188 (antibody, human IgG1, V domains shown)
VH: EVMLVESGGALVKPGGSLKLSCAASGFTFSNYAMSWVRQTPEKRLEWVATISSGGSYTYYPDSVKGRFTISRDNARNTLYLQMSSLRSEDTAMYYCARGYGNFAWFAYWGQGTLVTVSA
VL: DIQMTQSPLSLPVSLGDQASISCRSSQSIVHSTGNTYLEWYLQKPGQSPKLLIYKVSNRFSGVPDRFSGSGSGTDFTLKISRVEAEDLGVYYCFQGSHVPFTFGSGTKLEIK
B7: B1.217 (antibody, human IgG1, V domains shown)
VH: EVQLVESGGALVKPGGSLKLSCAASGFTFSNYAMSWVRQTPEKRLEWVATISSGGSYTYYPDSVKGRFTISRDNAKNTLYLQMSSLRSEDTALYYCTKYSNYGRFAYWGQGTLVTVST
VL: DVLMTQTPLSLPVSLGDQASISCRSSQSIVHSTGNTYLEWYLQKPGQSPKLLIYKVSNRFSGVPDRFSGSGSGTDFTLKISRVEAEDLGVYYCFQGSHIPYTFGGGTKLEIK
B8: B1.219 (antibody, human IgG1, V domains shown)
VH: EVQLVESGGALVKPGGSLKLSCAASGFTFSNYAMSWVRQTPEKRLEWVATISSVGSYTYYPDSVKGRFTISRDNAKTTLYLQMSGLRSEDTALYYCAKYSNYGRFASWGQGTLVTVST
VL: DVLMTQTPLSLPASLGDQASISCRSSQSIVHSSGNTYLEWYLQKPGQSPRLLIYKVSNRFFGVPDRISGSGSGTDFTLRISRVEAEDLGVYYCFQGSHVPYTFGGGTKLEIE

The binders below were run against human MDR1 (multidrug resistance protein 1) (human, UniProt P08183 1-1280) (assay: cell-based or functional assay).
In the case of B1, the “IC50 of vincristine on N6/ADR cells with antibody” value (from here on “IC50 of vincristine”) is reported as 52.8 pM. B2 was tested, and the “IC50 of vincristine” value was 9.5 pM. B3 was tested, and the “IC50 of vincristine” value was 21.6 pM. For B4, the “IC50 of vincristine” value was 2930 pM. For B5, the “IC50 of vincristine” value was 16.7 pM. For B6, the “IC50 of vincristine” value was 92.9 pM. B7 was tested, and the “IC50 of vincristine” value was 38.6 pM. For B8, the “IC50 of vincristine” value was 10.3 pM.
